In US8246957 (dated 2012):

How the values were obtained:
Test in all cases: cell-based or functional assay
[1] = molecular target: T1, gp120 of HIV-1 primary isolate ZA009 (clade C) (HIV-1 strain ZA009)
[2] = molecular target: gp120 of HIV-1 primary isolate strain 23135 (clade B) (HIV-1 strain 23135)
[3] = molecular target: T1, gp120 of HIV-1 primary isolate ZA009 …; remark: listed apart in the source
[4] = molecular target: gp120 of HIV-1 primary isolate Ug046 (clade D) (HIV-1 strain Ug046)

B1: Fv JL427 (scFv)
scFv: QSVLTQPPSVSGAPGQRVTISCSGSSSNFGLNYVTWQGHFPGTAPKLLIYRNDQRPLGVPARFSGSKSGTSASLAISGLRSEDEADYYCQSYDNSLSGWVFGGGYQLYVLGSSGGGGSGGGGSGGSAQVQLQQSGGGLVQPGRSLRLSCAASGFTFSSYGMHWVRQAPGKGLEWVSYIGRSGSHTNYADSVKGRFTISRDNSKNTLYLQINSLRAEDTAVYYCARGLPNYGMDIWGQGTTVTVSS
B1 was tested, and the “IC50, HIV-1 neutralization, independent preparations (N=3, mean and s.d.)” value [1] was 0.3 µg/mL, the “IC50, HIV-1 neutralization (p24, PBMC hosts)” value (from here on “IC50 … (p24, PBMC hosts)”) [2] was 22.4 µg Ab fragment/ml and the “IC90, HIV-1 neutralization (p24, PBMC hosts)” value (“IC90, HIV-1 neutralization” for short) [2] was 36.7 µg Ab fragment/ml. For the same binder, the “IC50 … (p24, PBMC hosts)” value [3] was 0.3 µg Ab fragment/ml, the “IC90, HIV-1 neutralization” value [3] was 5.7 µg Ab fragment/ml and the “IC50 … (p24, PBMC hosts)” value [4] was 5.5 µg Ab fragment/ml. The “IC90, HIV-1 neutralization” value [4] was 12.7 µg Ab fragment/ml.
